According to the nanobody polyreactivity screen of Harvey et al. (2022):

Assay: yeast display, Sf9 membrane polyspecificity reagent, FACS + sequencing; frameworks hold sequencing errors
How it was run: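 After 36–48 hours of galactose induction, yeast (Saccharomyces cerevisiae BJ5465) displaying a synthetic nanobody library were stained at 4 °C for 1 hour with 10% biotinylated, detergent-solubilized Sf9 membrane reagent. Streptavidin microbeads enriched the stained cells before FACS sorting into low and high (top ~1%) gates on anti-HA and streptavidin fluorescence. Each clone's polyreactivity label reflects its gate of origin.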

Row | Sequence | polyreactivity (PSR sort gate)
1 | QVQLVESGGGLVQAGGSLRLSCAASGVIFGPNAMGWYRQAPGKERELVAAIRWSGSRTYYADSVKGRFTISRDNAKNTVYLQMNSLKPEDTAVYYCAATGGLNGALSRLEYWGQGTQVTVSS | high polyreactivity
2 | QVQLVESGGGLVQAGGSLRLSCAASGLTFLRNGMGWYRQAPGKERELVASITRSGARTYYADSVKGRFTISRDNAKNTVYLQMNSLKPEDTAVSYCAARAYVSHYGVSNFGDYYWGQGTQVTVSS | high polyreactivity
3 | QVQLVESGGGLVQAGGSLRLSCAASGFIFGYYAMGWYRQAPGKERELVAPIKYNDDSTYYADSVKARFTISRDNAKNTVYLQMNSLKPEDTAVYYCAASRFWPGNSYYYRYYYWGQGTQVTVSS | low polyreactivity
4 | QVQLVESGGCLVQAGGSLRLSCAASGFTFSNYAMGWYRQPPGKESEFVAAISGTGGSTYYADSVKGRFTISRVNAKNTVYLQMNSLKPEDTAVYYCARRRTYPPGRYYYWGQGTQVTVSS | high polyreactivity
5 | QVQLVESGGGLDQAGGSLRLSCAAAGFIFHLNAMGWYRQAPGKERELLASIRSSGDSTHYADSEKGRFTISRDNAKITVYLQMNSLKPEDTAVFYCNADFYPAGTLTYDYWGQGTQVTVSS | low polyreactivity
6 | QVQLVESGGGLVQAGGSLRLSCAASGRIFGNYAMGWYRQAPGKARELVAAITSGARTYYADSVKGRFTISRDNAKNTVYLQMNSLKPEDTAVYYCAAYHKSYSYRYDYWGQGTQVTVSS | high polyreactivity
7 | QVQLVESGRGLVQAGGSLRLSCAASGITFGYYAMGWSRQEPGKQSELVAAISFNGASTYYADSVKGRFTISRDNAKNTVYLQMNSMKPVDNAVYYCNRSTSYAQYFDVMDYWGQGTQVTVSS | low polyreactivity
8 | QVQLVESGGGLVQAGGSLRLSCAATGSTFTAYAMSWYRQAPGKESELVAAIRRIGGDTYYADSVKGLFTISRDNAKNTVYLQMNSLKPEDTAVYYCAAFRWRSLQYWYHSMDLWGQGSQVTVSS | low polyreactivity
9 | QVHLVESGGGLVQAGGSLRISCAASGIIFYTYARGWYRQAPGKERELVAAISRSGGSTYYADSVKGRFTISRDNAKYTVYLQMNSRKPEDTAVDYCAADSTYRSTIQDYYWGQGTQVSVSS | high polyreactivity
10 | QVQLVESGGGLVQAGGSLRLSCAASGRIFGYNAMGWYRQAPGKERELVASIRSGGSTNYADSVKGRFTISRDNAKNTVYLQMNSLKPEDTAVYYCAKSYRWHLNGGLGWRLGNYWGQGTQVTVSS | high polyreactivity
11 | QVQLVESGGGLVQAGGSLRLSCAASGFTITIYAMGWYRQAPGKERELVATISGRAGRTYYADSVKGRFTISRDNAKNTVYLQMNSLKPEDTAVYYCNAGQWRYPGLYYYWGQGTQVTVSS | high polyreactivity
12 | QVQLVESGGGLVQAGGSLRLSCAASGRIFRYYAMGWYRQAPGKERELVAAISYSTGGTYYADSVKGRFTISRDNAKNTVYLQMNSLKPEDTAVYYCATSAYQIYPRYGYWGQGTQVTVSS | high polyreactivity
13 | QVQLVESGGGLVQAGGSLRLSCAASVRTFKFYAMGWYRQAPGKERELVAAITSSGGSTYYADSVKGRFTISRVNAKNTVYLQMNSLKPEDTAVYYCAAVGYKGYGYDYWGQGTQVTVSS | high polyreactivity
14 | QVQLVESGGGLVQAGGSLRLSCAASGSTFKNYVMGWYRQAPGKERELVAAISRSGGRTYYADSVKGRFTISRDNAKNTVYLQMYSLKPEVTAVYYCATPDQVELSSYDYWGEGTQVTVSS | high polyreactivity
15 | QVQLVESGGGLVQAGGSLRLSCAASGNTFVPYVMGWYRQAHGKERELVAAISRRGGSTRYADSVKGRFTISRDNAKNTVYLQMNSLKPEDTAVYYCAADGYVFALQRSRGVDFGYEYWGQGTQGTVSS | high polyreactivity
16 | QVQLVESGGGLVQAGGSLRLSCAASGYTFTAYAMGWYRQAPGKERELVAAISKGGGSTYYADSVKGRFTISRDNAKNTVYLQMNSLKPEDTAVYYCAADTYQGVKYYYWGQGTQVTVSS | high polyreactivity
17 | QVQLVESGGGLVQAGGSLRLSCAASGSIFAFYAMGWYRQAPGKERELVAAITASGGRTYYADSVKGRFTISRDNAKNTVYLQMNSLKPEDTAVYYCAAVGGATYSWNGTFLYDYDYWGQGTQVTVSS | low polyreactivity
